# Data reported in IntAct's records for PubMed 22266823.
# B1: Fanconi anemia core complex-associated protein 20 (Homo sapiens), Q6NZ36-1 (parent)
# chain: MEAARRPRLGLSRRRPRPAGGPSGGRPWFLLGGDERERLWAELLRTVSPELILDHEVPSLPAFPGQEPRCGPEPTEVFTVGPKTFSWTPFPPDLWGPGRSYRLLHGAGGHLESPARSLPQRPAPDPCRAPRVEQQPSVEGAAALRSCPMCQKEFAPRLTQLDVDSHLAQCLAESTEDVTW
# partner: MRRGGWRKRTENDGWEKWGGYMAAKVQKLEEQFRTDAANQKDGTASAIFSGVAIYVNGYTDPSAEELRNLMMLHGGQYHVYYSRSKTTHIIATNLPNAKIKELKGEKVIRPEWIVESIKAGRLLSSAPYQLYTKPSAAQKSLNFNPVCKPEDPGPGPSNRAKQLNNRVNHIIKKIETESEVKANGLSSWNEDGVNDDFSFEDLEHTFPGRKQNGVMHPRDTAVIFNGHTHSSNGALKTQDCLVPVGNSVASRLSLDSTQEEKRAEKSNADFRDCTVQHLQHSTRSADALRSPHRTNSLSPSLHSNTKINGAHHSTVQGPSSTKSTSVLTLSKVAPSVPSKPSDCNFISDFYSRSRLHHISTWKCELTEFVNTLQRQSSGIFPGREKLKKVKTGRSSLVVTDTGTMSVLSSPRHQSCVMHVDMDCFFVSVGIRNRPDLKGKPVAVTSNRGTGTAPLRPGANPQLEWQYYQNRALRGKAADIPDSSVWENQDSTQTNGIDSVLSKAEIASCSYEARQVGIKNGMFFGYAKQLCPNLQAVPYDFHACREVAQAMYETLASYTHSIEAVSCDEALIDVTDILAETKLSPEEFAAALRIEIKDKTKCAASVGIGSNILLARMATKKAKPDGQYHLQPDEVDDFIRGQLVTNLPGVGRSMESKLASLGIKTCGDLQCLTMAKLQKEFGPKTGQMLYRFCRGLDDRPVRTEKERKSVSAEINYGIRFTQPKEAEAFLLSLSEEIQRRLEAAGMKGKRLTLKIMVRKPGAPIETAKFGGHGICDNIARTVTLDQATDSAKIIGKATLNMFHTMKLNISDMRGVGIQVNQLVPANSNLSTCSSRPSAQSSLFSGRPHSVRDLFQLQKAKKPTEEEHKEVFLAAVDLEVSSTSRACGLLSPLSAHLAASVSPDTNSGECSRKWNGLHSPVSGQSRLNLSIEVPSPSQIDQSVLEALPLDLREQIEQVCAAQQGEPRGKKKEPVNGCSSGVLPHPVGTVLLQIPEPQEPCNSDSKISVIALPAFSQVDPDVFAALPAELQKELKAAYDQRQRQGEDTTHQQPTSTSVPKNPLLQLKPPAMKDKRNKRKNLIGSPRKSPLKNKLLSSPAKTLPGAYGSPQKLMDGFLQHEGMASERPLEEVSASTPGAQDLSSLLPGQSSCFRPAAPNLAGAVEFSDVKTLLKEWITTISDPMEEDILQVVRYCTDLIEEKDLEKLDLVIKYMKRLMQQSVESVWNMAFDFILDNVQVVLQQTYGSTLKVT
# Variants of: B1
# Conditions: with rev1_mouse Rev1, Q920Q2
row,effect of a mutation on the interaction,Variant
1,disrupting interaction strength,C147A;C150A
